Source: publication doi:10.1101/2021.01.14.426688 (bioRxiv, 2021)
Substitutions are numbered along the chain they refer to.

B1: Gfp-IDR_(FtsZ) (Gfp fused to the C-terminal 67 amino acids of E. coli FtsZ, residues 317-383) (domain or fragment, UniProt P0A9A6 317-383, looked up)
chain: MDKRPEITLVTNKQVQQPVMDRYQQHGMAPLTQEQKPVAKVVNDNAPQTAKEPDYLDIPAFLRKQAD
B2: Gfp-IDR_(FtsZ) mut-1 (Ala substitutions at FtsZ positions 352 through 358) (domain or fragment, E. coli, UniProt P0A9A6 317-383, looked up)
chain: B1 chain with K36A, P37A, V38A, K40A, V41A, V42A

Target: ClpXP (ClpX with ClpP protease) (E. coli, UniProt P0A6H1 1-424; P0A6G7 15-207)
Test: ultrafiltration

Sequence of ClpXP (ClpX with ClpP protease) (P0A6H1 whole entry, chain 1 of 2): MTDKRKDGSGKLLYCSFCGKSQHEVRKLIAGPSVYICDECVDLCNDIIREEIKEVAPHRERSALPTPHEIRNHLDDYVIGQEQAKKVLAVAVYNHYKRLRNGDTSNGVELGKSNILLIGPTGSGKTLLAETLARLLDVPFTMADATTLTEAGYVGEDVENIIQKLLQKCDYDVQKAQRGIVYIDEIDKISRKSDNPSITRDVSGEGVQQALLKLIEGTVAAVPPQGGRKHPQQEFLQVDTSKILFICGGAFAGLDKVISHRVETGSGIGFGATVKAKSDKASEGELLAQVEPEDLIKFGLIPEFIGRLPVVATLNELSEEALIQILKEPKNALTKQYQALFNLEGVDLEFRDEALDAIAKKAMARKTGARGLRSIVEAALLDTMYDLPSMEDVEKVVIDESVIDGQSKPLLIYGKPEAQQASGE
Sequence of ClpXP (ClpX with ClpP protease) (P0A6G7 15-207, chain 2 of 2): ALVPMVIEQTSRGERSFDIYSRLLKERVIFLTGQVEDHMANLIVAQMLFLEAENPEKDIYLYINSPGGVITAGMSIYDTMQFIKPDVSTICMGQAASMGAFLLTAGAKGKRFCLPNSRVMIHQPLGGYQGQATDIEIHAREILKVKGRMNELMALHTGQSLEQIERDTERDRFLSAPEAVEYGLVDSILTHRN

Row | Binder | binding result
1 | B1 | binds
2 | B2 | binds
